# T1: lecithin:cholesterol acyltransferase (LCAT), purified from human plasma (human, UniProt P04180 25-440)
# T1 sequence (looked up): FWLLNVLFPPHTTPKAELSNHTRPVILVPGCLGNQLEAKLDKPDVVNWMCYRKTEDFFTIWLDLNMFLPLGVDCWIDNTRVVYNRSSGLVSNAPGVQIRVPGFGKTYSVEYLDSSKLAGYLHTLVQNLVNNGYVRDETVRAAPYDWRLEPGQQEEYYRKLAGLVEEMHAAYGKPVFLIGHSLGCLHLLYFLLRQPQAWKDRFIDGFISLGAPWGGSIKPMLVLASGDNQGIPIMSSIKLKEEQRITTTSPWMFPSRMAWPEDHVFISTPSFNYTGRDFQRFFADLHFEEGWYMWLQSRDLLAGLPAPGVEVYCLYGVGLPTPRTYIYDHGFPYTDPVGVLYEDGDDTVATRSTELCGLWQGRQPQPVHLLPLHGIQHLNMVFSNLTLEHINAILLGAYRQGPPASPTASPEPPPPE
# Biological target: T1, lecithin:cholesterol acyltransferase …
# Test: cell-based or functional assay
binder,measurement,value
LDDLLQKWAEAFNQLLKK [peptide 237],ACTIVITY (%) LCAT,111%
